According to the supplement of paper PMC9170038:

System: MS2 coat protein
Experiment: apparent KD of MS2 coat protein; designed switch direction (-1 OFF switch, 1 ON switch): -1; higher = weaker reporter binding
In short: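 Each step of the titration lasted 0.8–1.5 h at the lowest concentration and 10–20 min at the highest. The protein, SNAP-549-labelled MS2 coat protein, went from 0.7 or 1.5 nM doubling to 3 µM over RNA switches transcribed on Illumina chips by stalled E. coli RNA polymerase. Normalised cluster fluorescence was curve-fitted, and the per-design median over clusters is given as apparent KD.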

[1] = input ligand: microRNA oligo, concentration not stated
[2] = Eterna round: R95, input ligand: FMN 200 uM
[3] = Eterna round: R95, input ligand: microRNA oligo, concentration not stated
[4] = Eterna round: R95, input ligand: none

Sequence	apparent KD of MS2 coat protein (input ligand: FMN 200 uM)	apparent KD of MS2 coat protein [1]	apparent KD of MS2 coat protein (input ligand: none)	apparent KD of MS2 coat protein [2]	apparent KD of MS2 coat protein [3]	apparent KD of MS2 coat protein [4]
UUAAUUAAUUAAGGCUGAAGAUCACAUGAGGAUCACCCAUGUAAGGAUAUCAGCUCGAUUAGAGCUGAGAAGGUACAUGCAGCC [ExNG3/18-B1] (Eterna round: R96, puzzle: Exclusion NG 3)	53.9 nM	377 nM	319 nM			
AACAAUACUUACAUAAUAAGGCUUUUCAGGUCGGGUACCACAUGAGGAUCACCCAUGUAGCAGCCUAGGGAAUGAUA [JR_Sensorv2_tov2_Sub1233] (Eterna round: R96, puzzle: Sensor v2, turn-off variant 2)	49.2 nM	36.4 nM	46.1 nM			
UGUGGGUCAGGAUAUUCUAUUUAUUACAUGAGGAUCACCCAUGUGAAUGUACAAGGGUGUGAAGAAGGGACUUGUG [LRO-Excl5-02-mod A17d by Omei] (Eterna round: R97, puzzle: Exclusion 5)	793 nM		2360 nM			
CCAAGAAUAGGAUAUACAACAUGCCAGCUUCUUUACAUCGCACAUGAGGAUCACCCAUGUAGAAGGGUUCUCUG [Exclusion-2-#15] (Eterna round: R97, puzzle: Exclusion 2)	182 nM		209 nM			
AUUGCGCGAGGAUAUACGAGAGACCUGUGUCAGAACCAUGGACAUGAGGAUCACCCAUGUAGAAGGCGUGCUCU [Eternabot (L1) Solution 73] (Eterna round: R97, puzzle: Exclusion 2)	78.6 nM		1200 nM			
CAACAUGGACCUCGCUCCGACAUGAGGAUCACCCAUGUUGGAACCUUACUGGCGUCGAGUGUUGCUCGUCUUACCGU [Eternabot (Original) Solution 10] (Eterna round: R97, puzzle: Sensor, turn-off variant 1)	189 nM		268 nM			
AAGAAGAAACAAGCUUUUUGCACGUCAGGUAGUGACGCAACAUGAGGAUCACCCAUGUAUAGGGUGGGAAAGGAUAG [JR_SV3TOV2_Sub048] (puzzle: Sensor v3, turn-off variant 2)				34 nM	30.9 nM	303 nM
GGUCAGAUGGUAGGAUAUCCAUAUUGAGUGACCCUUUCAUAACAUGAGGAUCACCCAUGUCGGUGGGAGAAGGGCCGUACGGCG [salish99_ExNG02_R04_015] (Eterna round: R96, puzzle: Exclusion NG 2)	176 nM	71.2 nM	114 nM			
UGGCUGCUCAGGGAGUGUGACAUGAGGAUCACCCAUGUGGUAGUAAGGAACAAGCUUUUUGCACGUACUUAUGGGUC [JR_SV3TOV1_Sub010] (puzzle: Sensor v3, turn-off variant 1)				268 nM	204 nM	375 nM
GUCACAUGGACAUAGGAUCACAUGAGGAUCACCCAUGUGACUAACAAGCUUUUUGUUCGUCUUAUGUCCAUGUGAAA [Stov1/15-B2] (Eterna round: R97, puzzle: Sensor, turn-off variant 1)	15.3 nM		11.2 nM			
CGGAAAUCCAAGGAUAUGCUAGACGAAAGUCUAGCAGAAGGUGGAACAUGAGGAUCACCCAUGUGUCCAAUCCG [Mat - Exclusion 6 - Eli Mod - D25] (Eterna round: R97, puzzle: Exclusion 6)	19.1 nM		14.5 nM			
UCCACACAUGAGGAUCACCCAUGUCAGGAUAUCUUUAGGGACUAUGGUUAUUCCUAAUAGAGAAGGGACAUAUU [EX1 B.27] (Eterna round: R97, puzzle: Exclusion 1)	152 nM		37.1 nM			
CUCGUGUGAGGAUAUUCACACCCGUUGCAGCGACGGACAAAGAAGAAGGCACAUGAGGAUCACCCAUGUAAAGA [Onan] (Eterna round: R97, puzzle: Exclusion 4)	97.8 nM		192 nM			
UUUUAACAAGCGAGGUCCCACAUGAGGAUCACCCAUGUAGGUCAUGGAUUCCAUGGUCUUUUUGCUCGUCUUGUGUG [jl TITIN mod 9] (Eterna round: R97, puzzle: Sensor, turn-off variant 1)	32.2 nM		31.6 nM			
ACAUGAGGAUCACCCAUGUCCGGCUGGUCUGUCUCGGCUGUCGAGGAUAUAGCACGGUAUCCGCGCUAGAAGGCGGGAGCCGGU [Aenatbe mod 87] (Eterna round: R96, puzzle: Exclusion NG 3)	216 nM	29 nM	42.8 nM			
CAUACUCAAGUGAGGAUAUAGUCUCGGAUACGGAACUAGAAGGCACAUGAGGAUCACCCAUGUAGAGAGUAAAG [EX-4 Malc #28] (puzzle: Brourd's mod of Exclusion 4)				56.6 nM	22.8 nM	15.9 nM

Sequence	apparent KD of MS2 coat protein (input ligand: FMN 200 uM)	apparent KD of MS2 coat protein [1]	apparent KD of MS2 coat protein (input ligand: none)	apparent KD of MS2 coat protein [2]	apparent KD of MS2 coat protein [3]	apparent KD of MS2 coat protein [4]
UCUUCACAUGAGGAUCACCCAUGUGAGGAUAUGGUUUCGCUGGCCGUAGCCAGUGGAACCAGAAGGCGCGUGAU [Mat - Exclusion 1 - JL Mod - D23] (Eterna round: R97, puzzle: Exclusion 1)	89.6 nM		73.5 nM			
GAGUGACAUGAGGAUCACCCAUGUGAGGAUAUCGGACGGACCAAAUUAACAACCACCGCGAGAAGGCACAUCGG [Exclusion 1 V21] (puzzle: Exclusion 1)				58.4 nM	98.9 nM	107 nM
AGCGAAUAGCUAGGAUAUGAGAAUAGAUAGAGCUCAGAAGGAGCACAUGAGGAUCACCCAUGUGAAGUCUUGAGGCUGCGUGGU [Prohibition 17 - Jieux - Exclusion NG 1] (Eterna round: R96, puzzle: Exclusion NG 1)	20.8 nM	14.7 nM	18.8 nM			
CCUGUGUAAGGAUAUGCCUGGCCGUGAGGCCAGAUUGAAUAGCAGAAGGUACAUGAGGAUCACCCAUGUACGGG [jl-ex4-4.61 ViennaUCT mod] (Eterna round: R97, puzzle: Exclusion 4)	206 nM		32.9 nM			
AUUAUAUAGACAGGAUAUUGAUUAUUAUUUUAACAUGAGGAUCACCCAUGUAACCUUAUGUAUAGCAAGAAGGGUCAUUUAUUA [Title] (Eterna round: R96, puzzle: Exclusion NG 2)	107 nM	72.9 nM	75.6 nM			
ACCUCACAUGAGGAUCACCCAUGUCAGGAUAUUCAAACAGGCGAAACUCCGCCUUCUCGAAGAAGGGACAUUAA [Israon] (Eterna round: R96, puzzle: Exclusion 1)	82.1 nM	14.6 nM	17.7 nM			
GGAAAGCAAGGAUAUACAAGGAAACGAUGGAAAGUAGAGAGACAUGAGGAUCACCCAUGUAGAAGGUGCGAGAG [JR_Exclu2_Sub037] (puzzle: Exclusion 2)				36.9 nM	24.9 nM	25.3 nM
AGUUGGCGAGGAUAUACAUGAGGAUCACCCAUGUGAAGAAGAAUAGUGAGGAAGAAAAGUAGAAGGCGCUGACA [Mat - Exclusion 3 - Mod of Salish D37] (puzzle: Exclusion 3)					36.6 nM	
AUGAGCAGACGGAGAUCCAACAUGAGGAUCACCCAUGUCUCAAAAGCUUUUUGCUCAUCUUAUUGUACCUUGGUGCU [Mat - Sensor v3 - turn-off var 1 - JL Mod - D16] (puzzle: Sensor v3, turn-off variant 1)				167 nM	13.2 nM	194 nM
CUGCUCCGUGUAGGAUAUGCAUGCAACCAAUAUGCAGAAGGACAUGAGGAUCACCCAUGUAUGUUAUUAUCACGUGAAGCGUCC [Design 22] (Eterna round: R96, puzzle: Exclusion NG 1)	27.1 nM	19.5 nM	29.8 nM			
CCAGCGUGUGUGAGGAUAUGCUGGUCCUUGGAUCAGCAGAAGGCACAUGAGGAUCACCCAUGUGAGAGCGUUGG [JL bmx4 3.36] (puzzle: Brourd's mod of Exclusion 4)					20.7 nM	
UUUAUAAUAAGAUCAAUUAAUUAACAUGAGGAUCACCCAUGUGAGGAUAUCAGCUCGUUUAGAGCUGAGAAGGCACAAUAUAAG [ExNG3/17-B2] (Eterna round: R96, puzzle: Exclusion NG 3)	62.2 nM	42.1 nM	42.3 nM			
ACAUGUCAUCGAGGAUAUUGCACACAUGAGGAUCACCCAUGUAUACGGUUGCUCUUGCGUGAGUUCGAGAAGGCGAUGUACAUU [Ex NG2 #86] (Eterna round: R96, puzzle: Exclusion NG 2)	109 nM	198 nM	313 nM			
AGAGAGUCAGGAUAUCGAAGGUAGAGAAGAGGAGAGUGGUACGAGAAGGGACAUGAGGAUCACCCAUGUAGGUG [JR_Exclusion4)Sub012] (puzzle: Exclusion 4)				193 nM	245 nM	462 nM
UUUAGUUGGUAAGGAUAUCCUACAUUGUUCUGGCCCGGGCAUGCUACAUGAGGAUCACCCAUGUGGGAGAAGGUGCGUCAUCGC [Design 19] (Eterna round: R96, puzzle: Exclusion NG 2)	51.4 nM	39.4 nM	47.9 nM			
UAUUAGCAAGCGAGAUCCCACAUGAGGAUCACCCAUGUGCUCGUCUUAAGCCCAGAAUUACUGGGCGCUCGUCUUAU [Winner reversed engineered 20] (Eterna round: R97, puzzle: Sensor, turn-off variant 1)	13.1 nM		12.7 nM			
